Results taken from patent publication US20100239568A1, “DIAGNOSTICS AND TREATMENTS FOR TUMORS” (GENENTECH, INC., priority 2006, published 2010).

Legend:
monocytes = experiment: Monocyte migration assay; format: cell-based, human; conditions: found in high salt fraction of EL4 and L1210 tumor lysates
Method: Monocyte migration assay: Step 1: isolation of monocyte from human PBMC. Blood was diluted with PBS 1:1 (v/v). The diluted blood was slowly added on top of Ficoll and centrifuged at 3000 rpm for 15 min at room temperature (RT) without break. Plasma was removed and white cells were collected (9˜5 ml interphase). Cells were washed in migration buffer containing PBS with 0.5% BSA (low in endotoxin), spun at 1850 rpm (9˜800 g) for 10 min at RT and cells were counted. Step 2: Magnetic labeling of cells. Cell pellet was resuspended in MACS buffer containing PBS with 0.5% BSA (low in endotoxin) and 2 mM EDTA, 30 μl per 10^7 cells. FcR blocking reagent and Biotin-antibody cocktails were added and mixed well. The cells were then incubated for 10 min at 4° C. after which 30 μl more MACS buffer per 10^7 cells was added and anti-biotin Microbeads was added. This was mixed well and incubated for 10 min at 4° C. Cells were washed with MACS buffer by adding 10-20 fold more of the labeling volume, spun at 300g (1250 rpm) for 10 min. Cells were resuspended in up to 10^8 cells in 2 ml buffer. Step 3: Magnetic separation with LS columns. LS column (Miltenyi Biotec) was placed in the magnetic field holder. Column was rinsed with MACS buffer. Cell suspension was applied to the column. Unlabelled flow was collected, which represents enriched monocyte fraction. […]

HUVEC cells = experiment: HUVEC proliferation assay; format: cell-based, human; conditions: found in high salt fraction of EL4 and L1210 tumor lysates
Method: HUVEC proliferation assay: HUVEC at passage less than 8 were used in the study. Day 1: 3000 cells/well (96-well plate) were plated onto 1% gelatin-coated plate in the assay media (DMEM:F12 50:50) with 1.5% FBS. Day 2: Media was changed and cells were treated with various growth factors or conditioned media. Day 3: ^3H-thymidine was added at 0.5 μCi/well. Day 4: 250 mM EDTA/well was added to stop the reaction in the morning. Cells were harvested onto 96-well filter plate and washed with water 3 times. ^3H samples were counted with TOPCOUNT liquid scintillation counter.

B1: bFGF: growth factor found in the high salt fraction of resistant tumor lysates (protein, UniProt P15655 10-154, looked up)
Fibroblast growth factor 2: PALPEDGGAAFPPGHFKDPKRLYCKNGGFFLRIHPDGRVDGVREKSDPHVKLQLQAEERGVVSIKGVCANRYLAMKEDGRLLASKCVTEECFFFERLESNNYNTYRSRKYSSWYVALKRTGQYKLGSKTGPGQKAILFLPMSAKS
For B1, the chemotactic activity (monocytes) was “not chemotactic activity” and the “proliferation of HUVEC cells” value (HUVEC cells) was “contribute to the proliferation of HUVEC cells”.
